# Molecular target: Fc-tagged receptor-binding domain (RBD) of the SARS-CoV-2 spike (S) protein (SARS-CoV-2) (UniProt P0DTC2)
# Assay: BLI; Octet Red96e; Fc-tagged RBD loaded onto the biosensor (streptavidin biosensors as printed), Fab in solution; 1x PBS pH 7.4, 0.01% w/v BSA, 0.002% v/v Tween 20; 60 s association, 60 s dissociation; 1:1 binding model
substance,measurement,value
COVD21-C8 heavy chain paired with the light chain of COV107-23 (Fab),Kd,> 1000 nM
COV107-23 heavy chain paired with the light chain of COVD21-C8 (Fab),Kd,> 1000 nM

# — paper doi:10.1101/2021.01.26.428356
